Measured values published in article PMC4347857, “Characterization of the Mycobacterial Acyl-CoA Carboxylase Holo Complexes Reveals Their Functional Expansion into Amino Acid Catabolism” (PLoS Pathogens, 2015).

B1: M. tuberculosis AccD1 (Rv2502c), hexa-histidine tagged (natural protein)
chain: MTTPSIAIAPSFADEHRRLVAELNNKLAAAALGGNERARKRHVSRGKLLPRERVDRLLDPGSPFLELAPLAAGGMYGDESPGAGIITGIGRVSGRQCVIVANDATVKGGTYYPMTVKKHLRAQEVALQNMLPCIYLVDSGGAFLPRQDEVFPDREHFGRIFYNQATMSAKGIPQVAAVLGSCTAGGAYVPAMSDEAVIVREQGTIFLGGPPLVKAATGEIVSAEELGGGDLHSRTSGVTDHLADDDEDALRIVRAIADTFGPCEPAQWDVRRSVEPKYPQAELYDVVPPDPRVPYDVHEVVVRIVDGSEFSEFKAKYGKTLVTAFARVHGHPVGIVANNGVLFSESALKGAHFIELCDKRKIPLLFLQNIAGFMVGRDYEAGGIAKHGAKMVTAVACARVPKLTVVIGGSYGAGNYSMCGRAYSPRFLWMWPNARISVMGGEQAASVLATVRGEQLSAAGTPWSPDEEEAFKAPIRAQYEDQGNPYYSTARLWDDGIIDPADTRTVVGLALSLCAHAPLDQVGYGVFRM
notes: also called CT β-subunit of the M. tuberculosis MCC; not shown: His6, N-terminal, kept
B2: M. tuberculosis AccA1 (Rv2501c) (natural protein)
chain: MFDTVLVANRGEIAVRVIRTLRRLGIRSVAVYSDPDVDARHVLEADAAVRLGPAPARESYLDIGKVLDAAARTGAQAIHPGYGFLAENADFAAACERARVVFLGPPARAIEVMGDKIAAKNAVAAFDVPVVPGVARAGLTDDALVTAAAEVGYPVLIKPSAGGGGKGMRLVQDPARLPEALVSARREAMSSFGDDTLFLERFVLRPRHIEVQVLADAHGNVVHLGERECSLQRRHQKVIEEAPSPLLDPQTRERIGVAACNTARCVDYVGAGTVEFIVSAQRPDEFFFMEMNTRLQVEHPVTEAITGLDLVEWQLRVGAGEKLGFAQNDIELRGHAIEARVYAEDPAREFLPTGGRVLAVFEPAGPGVRVDSSLLGGTVVGSDYDPLLTKVIAHGADREEALDRLDQALARTAVLGVQTNVEFLRFLLADERVRVGDLDTAVLDERSADFTARPAPDDVLAAGGLYRQWALARRAQGDLWAAPSGWRGGGHMAPVRTAMRTPLRSETVSVWGPPESAQVQVGDGEIDCASVQVTREQMSVTISGLRRDYRWAEADRHLWIADERGTWHLREAEEHKIHRAVGARPAEVVSPMPGSVIAVQVESGSQISAGDVVVVVEAMKMEHSLEAPVSGRVQVLVSVGDQVKVEQVLARIKD
notes: also called BC α-subunit of the M. tuberculosis MCC

Legend:
[1] = biological target: the molecule itself; assay: negative-stain electron microscopy
[2] = biological target: B2; assay: pull-down; settings: partners not purified

Binder	stoichiometry N [1]	binding result [2]
B1	6	binds
B2	3	
